In general, koff refers to the first-order rate constant of dissociation. Read a low koff as slow dissociation.

The target in one experiment is T1, FimI (E. coli W3110, UniProt P39264 20-179).
T1 chain: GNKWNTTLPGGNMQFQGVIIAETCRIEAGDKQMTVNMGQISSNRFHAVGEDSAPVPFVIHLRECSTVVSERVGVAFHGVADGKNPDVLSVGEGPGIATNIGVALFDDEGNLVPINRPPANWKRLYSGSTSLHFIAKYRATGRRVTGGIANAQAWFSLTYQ
Kind of experiment: 37 °C, excess FimC.

Experiment [1] deals with T2, FimI-FimAtHis (the two subunits of the ternary FimCHisIA complex) (E. coli W3110 | E. coli, UniProt P39264 20-179; P04128 37-182).
T2 chain 1: T1 chain
T2 chain 2: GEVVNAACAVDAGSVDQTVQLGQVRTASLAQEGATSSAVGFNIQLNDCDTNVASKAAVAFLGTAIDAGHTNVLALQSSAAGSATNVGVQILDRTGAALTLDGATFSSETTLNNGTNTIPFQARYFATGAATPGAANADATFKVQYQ
Kind of experiment: 37 °C, excess FimC; printed as 0.18 h-1.

The next experiment concerns the target T3, FimFt (E. coli).
T3 chain: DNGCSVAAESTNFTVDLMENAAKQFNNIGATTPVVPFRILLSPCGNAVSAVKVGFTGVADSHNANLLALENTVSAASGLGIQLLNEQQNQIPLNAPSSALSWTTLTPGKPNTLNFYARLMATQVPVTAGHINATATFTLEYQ
Kind of experiment: 37 °C, excess FimC; printed as 0.44 h-1.

Experiment [2] addresses T4, FimF-FimGt (the two subunits of the ternary FimCHisFG complex) (E. coli, UniProt P08189 21-176; P08190 24-167).
T4 chain 1: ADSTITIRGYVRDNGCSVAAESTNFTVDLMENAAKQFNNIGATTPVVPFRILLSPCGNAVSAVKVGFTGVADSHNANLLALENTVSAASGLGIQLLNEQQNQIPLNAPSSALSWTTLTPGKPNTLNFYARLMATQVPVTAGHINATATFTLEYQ
T4 chain 2: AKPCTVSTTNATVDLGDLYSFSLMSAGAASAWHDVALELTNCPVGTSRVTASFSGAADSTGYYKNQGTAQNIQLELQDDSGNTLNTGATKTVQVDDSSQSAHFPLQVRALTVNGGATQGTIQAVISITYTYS
In words: 37 °C, excess FimC; printed as 0.49 h-1.

B1: FimCHis (FimC with C-terminal hexahistidine tag) (natural protein)
chain: GVALGATRVIYPAGQKQEQLAVTNNDENSTYLIQSWVENADGVKDGRFIVTPPLFAMKGKKENTLRILDATNNQLPQDRESLFWMNVKAIPSMDKSKLTENTLQLAIISRIKLYYRPAKLALPPDQAAEKLRFRRSANSLTLINPTPYYLTVTELNAGTRVLENALVPPMGESTVKLPSDAGSNITYRTINDYGALTPKMTGVME
As to B1, the koff with FimI was determined as 0.011 s⁻¹; in experiment [1] it was 5e-05 s⁻¹; in the experiment with FimFt, 0.000122 s⁻¹; in experiment [2] it was 0.000136 s⁻¹.

The values are drawn from publication PMC10673952 (2023).
